Tests used:
Experiment in all cases: co-IP
[1] = target: PfGAPM2-GFP (P. falciparum) (UniProt Q8IFN1)
[2] = target: PfGAPM3-HA (P. falciparum)
[3] = target: PfGAPM1-HA (P. falciparum) (UniProt Q8IE80)

Substance | percent of the total ALV in the sample that was precipitated [1] | percent of the total ALV in the sample that was precipitated [2] | percent of the total ALV in the sample that was precipitated [3] | percent of the protein in the sample that was precipitated [2] | percent of the protein in the sample that was precipitated [1] | percent of the protein in the sample that was precipitated [3]
PfALV4 (natural protein) | 26% | 16% | 17% | – | – | –
PfGAP45 (from UniProt Q8I5I8 1-204) (natural protein) | – | – | – | < 10% | – | –
PfGAP50 (natural protein) | – | – | – | < 10% | < 10% | < 10%
